In article PMC5928759, “D-Serine Metabolism and Its Importance in Development of Dictyostelium discoideum” (Frontiers in Microbiology, 2018):

Legend:
[1] = biological target: T1, D-amino acid oxidase (DAO; DDB0238432 protein) (Dictyostelium discoideum, UniProt Q556W1); assay: UV-visible spectrum of purified enzyme; format: binding; details: oxidized flavin, maxima around 360 and 450 nm; FAD in storage buffer
T1 construct: gene ddo-1; cDNA from EST clone in pET15b, N-terminal 6-His tag, expressed in E. coli Rosetta (DE3), Ni-NTA purified

purified protein [2] = substrate: N[C@H](CO)C(=O)O; assay: purified protein; details: oxidative deamination, 50 mM Tris-HCl pH 8.5, 20 μM FAD
purified protein [3] = substrate: C[C@@H](N)C(=O)O; assay: purified protein; details: oxidative deamination, 50 mM Tris-HCl pH 8.5, 20 μM FAD

Molecule | UV-visible spectrum of purified enzyme [1] | Km (purified protein [2]) [mM] | kcat (purified protein [2]) [s⁻¹] | kcat/Km (purified protein [2]) [M⁻¹ s⁻¹] | Km (purified protein [3]) [mM] | kcat (purified protein [3]) [s⁻¹] | kcat/Km (purified protein [3]) [M⁻¹ s⁻¹]
Cc1cc2nc3c(=O)[nH]c(=O)nc-3n(C[C@H](O)[C@H](O)[C@H](O)COP(=O)(O)OP(=O)(O)OC[C@H]3O[C@@H](n4cnc5c(N)ncnc54)[C@H](O)[C@@H]3O)c2cc1C [FAD] | indicating that it possesses an oxidized form of the flavin cofactor | – | – | – | – | – | –
D-amino acid oxidase (DAO; DDB0238432 protein) (Dictyostelium discoideum) (protein) MNQNKNNNNKNPKINLLIIGCGCIGLSTGIIALKSGNYKSVSIWAKDLPPNTTSNKAAALWYPFLCNPLDLVGKWSAETMQYYKDHIINDPKSGTITKKVNEIFRRPHPEDPEWKPYIKSFRRARKDELPDGYVDGYAIDDGFVMDTDMYMDYLVDQFKSLGGIIEQRHLVDIREAFVDHDVVVNCTGLGSRELFNDRTIYPGRGQIIVIKNSTDRSIMDEEDHIAYVIPRLTNTVLGGTNQEHDYNTNPTKKDTEEILKRVAMISPRFAKNRIEIQGVKVGLRPARHEIRLENEFFEGGSKLVVHNYGHGGSGFTVSWGCAIEAIKLVDQGLPKLLHFNKLISKL | – | 6.1 ± 0.78 | 0.05 | 10 | 0.78 ± 0.05 | 0.53 | 680
